Drawing on patent US20230310634A1, “ANTI-HUMAN VISTA ANTIBODIES AND USE THEREOF” (IMMUNEXT, INC., priority 2020, published 2023), this text covers antibody binding capacity (ABC) (ABC (molecules per cell)) and antibody binding capacity (ABC) for one molecule.

Test [1] deals with T1, human VISTA on cells (human) (UniProt Q9H7M9).
T1 sequence: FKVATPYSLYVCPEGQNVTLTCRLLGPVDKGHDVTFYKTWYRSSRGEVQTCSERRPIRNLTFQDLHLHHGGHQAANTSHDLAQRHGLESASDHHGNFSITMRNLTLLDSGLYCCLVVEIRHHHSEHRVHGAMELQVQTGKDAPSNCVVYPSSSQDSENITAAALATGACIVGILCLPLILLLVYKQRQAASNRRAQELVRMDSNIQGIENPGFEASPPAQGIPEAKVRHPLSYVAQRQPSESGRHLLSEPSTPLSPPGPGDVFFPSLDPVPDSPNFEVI
As to the kind of experiment: flow cytometry with quantification beads, CD66b+ neutrophils in human whole blood, n=3 donors. (In general: In flow cytometry, cells or beads pass a laser one at a time.)

Test [2] concerns the target T1, human VISTA on cells (human). As to the kind of experiment: flow cytometry with quantification beads, CD4+ CD25+ CD127low Tregs of human PBMC, n=5 donors.
The target is the same in test [3]. As to the kind of experiment: flow cytometry with quantification beads, CD8+ T cells of human PBMC, n=5 donors.
Test [4] has the same target. As to the kind of experiment: flow cytometry with quantification beads, CD14+ monocytes in human whole blood, n=3 donors.
Test [5] shares this target. As to the kind of experiment: flow cytometry with quantification beads, CD20+ B cells in human whole blood, n=3 donors.
Test [6] shares this target. As to the kind of experiment: flow cytometry with quantification beads, CD4+ T cells of human PBMC, n=5 donors.
Test [7] shares this target. As to the kind of experiment: flow cytometry with quantification beads, CD14+ monocytes of human PBMC, n=5 donors.
Test [8] shares this target. As to the kind of experiment: flow cytometry with quantification beads, CD8+ T cells in human whole blood, n=3 donors.
For test [9] the target is unchanged. As to the kind of experiment: flow cytometry with quantification beads, Tregs in human whole blood, n=3 donors.
The target is the same in test [10]. As to the kind of experiment: flow cytometry with quantification beads, CD4+ T cells in human whole blood, n=3 donors.

B1: Anti-VISTA GG8 (antibody, V domains shown)
VH: EVQLQQSGPELVKPGTSMKISCKASGYSFTGYTMNWVRQSHGKNLEWIGLINPYNGGINYNQKFKARATLTVDKSSSTAYMELLSLTSEDSAVYYCARRTLLRPYFFDYWGQGTTLTVSS
VL: DIVLTQSPASLAVSLGQRATISCRASQSVSTSTFSYMHWYQQKPGQPPKLLIKYASNLESGVPARFSGSGSGTDFTLNIHPVEEEDTATYYCQHSWEIPYTFGGGTKLEIK
modifications: Alexa Fluor 647 dye conjugated to the antibody (p-1554); attachment sites not given
Consider B1, for which the antibody binding capacity (ABC) (ABC (molecules per cell)) came to 68600 in test [1], 224000 in [4], 1280 in test [5] and 112000 in test [7]. For the same molecule, the antibody binding capacity (ABC) in [2] worked out at 6640 molecules; in test [3], 9960 molecules; in test [6], 5940 molecules; in test [8], 5010 molecules; in test [9], 7490 molecules; in test [10] it was 8720 molecules.
